Experimental data taken from the RNAGym collection of RNA variant scans (doi:10.7554/elife.80360).

B1: HDV Ribozyme (parent)
chain: GGCCGGCAUGGUCCCAGCCUCCUCGCUGGCGCCGGCUGGGCAACAUUCCGAGGGGACCGUCCCCUCGGUAAUGGCGAAUGGGACCCA

Variants of: B1
Assay: self-cleavage, relative activity (ratio to wild type); higher = more cleavage; co-transcriptional
C32G C61G showed a self-cleavage of 0.0604.
With G17U A45G the self-cleavage was 0.525.
With G6C C33G the self-cleavage was 0.185.
For G73U A78U, the self-cleavage was 0.119.
With C32A G74A the self-cleavage was 0.148.
In the case of C21U C48U, the self-cleavage is reported as 0.247.
U69C G76C gave a self-cleavage of 1.11.
Variant G17U G35U has a self-cleavage of 0.198.
U46A U60A gave a self-cleavage of 0.751.
With G81U C85G the self-cleavage was 0.212.
Variant C44A C86G has a self-cleavage of 0.787.
With U9A C75G the self-cleavage was 0.0665.
Work on G6A U23G yielded a self-cleavage of 0.342.
In the case of G29C U65C, the self-cleavage is reported as 0.138.
In the case of C7G A77C, the self-cleavage is reported as 0.0692.
For G35A C49A, the self-cleavage was 0.591.
With C22U C30G the self-cleavage was 0.126.
G53C G55U gave a self-cleavage of 0.987.
G10C G38U gave a self-cleavage of 0.132.
With G59A C86G the self-cleavage was 1.01.
Work on U27A U69C yielded a self-cleavage of 1.11.
Variant A70U G81U has a self-cleavage of 0.469.
Work on C22U G54A yielded a self-cleavage of 0.709.
With G5A C41A the self-cleavage was 0.0615.
Variant C30U A56G has a self-cleavage of 0.665.
G34U C86G showed a self-cleavage of 0.205.
With A45G C75U the self-cleavage was 0.208.
G1A G52A gave a self-cleavage of 0.138.
With G11C A71C the self-cleavage was 0.306.
In the case of G17C U46C, the self-cleavage is reported as 0.0791.
G1U G52U showed a self-cleavage of 0.372.
For G5U C84U, the self-cleavage was 0.219.
For U9C C85U, the self-cleavage was 1.07.
In the case of U23C U46G, the self-cleavage is reported as 0.739.
U12A C85A gave a self-cleavage of 0.383.
C41G C66G showed a self-cleavage of 0.831.
In the case of C36A G38U, the self-cleavage is reported as 0.189.
U47C G67C showed a self-cleavage of 0.59.
With A42U A45G the self-cleavage was 0.237.
C30A G31C gave a self-cleavage of 0.115.
For G39U C49G, the self-cleavage was 0.665.
G39A G52A gave a self-cleavage of 0.405.
C33U C49U gave a self-cleavage of 1.06.
With G2A C44G the self-cleavage was 0.0185.
C75A A87U showed a self-cleavage of 0.111.
In the case of C36G A56U, the self-cleavage is reported as 0.111.
Work on C61G C75U yielded a self-cleavage of 0.101.
Variant C22U U69G has a self-cleavage of 0.759.
U69A C86U gave a self-cleavage of 0.739.
For C3G G59U, the self-cleavage was 0.899.
Work on G38U U79A yielded a self-cleavage of 0.
For C21G G39A, the self-cleavage was 0.0563.
C4G U69A gave a self-cleavage of 0.192.
For G52C U69A, the self-cleavage was 1.21.
In the case of G2U G34U, the self-cleavage is reported as 0.0369.
C44G A51C gave a self-cleavage of 0.447.
Variant G1C C86G has a self-cleavage of 0.268.
G39A A87U showed a self-cleavage of 0.531.
In the case of U23A A70G, the self-cleavage is reported as 0.931.
In the case of A42C G80U, the self-cleavage is reported as 0.219.
A8G A71U showed a self-cleavage of 0.902.
With A43U U65C the self-cleavage was 0.298.
For G2U C15G, the self-cleavage was 0.0282.
Variant C44U A70C has a self-cleavage of 0.831.
Work on C36A U37G yielded a self-cleavage of 0.256.
Work on G1C A8U yielded a self-cleavage of 0.0978.
In the case of G25C U47G, the self-cleavage is reported as 0.119.
C18A A70C showed a self-cleavage of 0.128.
C4U G31C showed a self-cleavage of 0.0339.
Variant G25A A51U has a self-cleavage of 0.318.
G53U G74A gave a self-cleavage of 0.646.
Variant C18G A87C has a self-cleavage of 0.104.
Work on C19G U23A yielded a self-cleavage of 0.
With A8G C66G the self-cleavage was 0.969.
For G39C A87G, the self-cleavage was 0.204.
A51U C64G gave a self-cleavage of 0.578.
In the case of C66A G81A, the self-cleavage is reported as 0.354.
In the case of G52A A78U, the self-cleavage is reported as 0.277.
G6U G76A showed a self-cleavage of 0.708.
U46G U79A gave a self-cleavage of 0.356.
With C44G U47C the self-cleavage was 0.554.
In the case of C44G U47G, the self-cleavage is reported as 0.475.
With U23C C61G the self-cleavage was 0.945.
For G59U U69A, the self-cleavage was 0.85.
With A56C G80A the self-cleavage was 0.292.
Work on G1C A45U yielded a self-cleavage of 0.
Variant C4G C57G has a self-cleavage of 0.489.
U9C G17U showed a self-cleavage of 0.914.
In the case of G50U A70G, the self-cleavage is reported as 0.846.
Work on G68A G74U yielded a self-cleavage of 0.612.
With G76A C85A the self-cleavage was 0.904.
A45C C57U gave a self-cleavage of 0.73.
With C18A U46G the self-cleavage was 0.128.
Variant U79C C84G has a self-cleavage of 0.214.
In the case of C61G C63A, the self-cleavage is reported as 0.718.
C57G G73C showed a self-cleavage of 0.495.
With C33A G39U the self-cleavage was 0.138.
In the case of C15A U69C, the self-cleavage is reported as 0.598.
For C26G G81C, the self-cleavage was 0.499.
G50U A78C showed a self-cleavage of 0.373.
Work on G31C G40U yielded a self-cleavage of 0.229.
G31C C58A showed a self-cleavage of 0.325.
In the case of G52U U72G, the self-cleavage is reported as 0.396.
In the case of C26A A56G, the self-cleavage is reported as 0.957.
A43G G59C showed a self-cleavage of 0.637.
With U46A C66G the self-cleavage was 1.05.
In the case of C13A C75G, the self-cleavage is reported as 0.145.
C32G C66A gave a self-cleavage of 0.113.
With C66A G67C the self-cleavage was 0.845.
With G5A A77G the self-cleavage was 0.
Variant G28A C58A has a self-cleavage of 0.0639.
Variant G28C U47G has a self-cleavage of 0.0536.
Variant U47G G67U has a self-cleavage of 0.929.
Work on A16C U47C yielded a self-cleavage of 0.95.
Variant G11A G52U has a self-cleavage of 0.548.
Variant G54A C62U has a self-cleavage of 1.05.
U9A C32A showed a self-cleavage of 0.0898.
U27A G38U showed a self-cleavage of 0.0426.
For G31C A70C, the self-cleavage was 0.266.
For G2C G73C, the self-cleavage was 0.106.
Work on C32A A43G yielded a self-cleavage of 0.119.
In the case of U20A G68A, the self-cleavage is reported as 0.0504.
In the case of C3A U23C, the self-cleavage is reported as 0.46.
Work on A71G A87G yielded a self-cleavage of 1.06.
For A51C G76A, the self-cleavage was 1.08.
G28A U79G gave a self-cleavage of 0.0489.
Variant G35A G81C has a self-cleavage of 0.188.
Work on G67C A70C yielded a self-cleavage of 0.655.
In the case of C7U C58G, the self-cleavage is reported as 1.02.
Variant C61A has a self-cleavage of 1.02.
In the case of C4U U9C, the self-cleavage is reported as 0.727.
In the case of C3A U27C, the self-cleavage is reported as 0.217.
For C33U G50U, the self-cleavage was 0.92.
For G55A A87G, the self-cleavage was 0.966.
With G5A C57G the self-cleavage was 0.138.
A42G gave a self-cleavage of 0.562.
For C15A G50A, the self-cleavage was 0.527.
For A8G C41A, the self-cleavage was 0.914.
C7U C57A showed a self-cleavage of 0.979.
Variant C44G A45U has a self-cleavage of 0.776.
In the case of U79G, the self-cleavage is reported as 0.742.
For G31U U65G, the self-cleavage was 0.383.
U9G C66G showed a self-cleavage of 1.19.
Variant G39C A51C has a self-cleavage of 0.291.
Work on U23A C64U yielded a self-cleavage of 0.935.
Work on C22G G73C yielded a self-cleavage of 0.0845.
With C22G G73A the self-cleavage was 0.0692.
With C22G C58A the self-cleavage was 0.
Variant G29U G55A has a self-cleavage of 0.122.
A43U G54U showed a self-cleavage of 0.432.
C30U C41U gave a self-cleavage of 0.447.
In the case of U27A A43G, the self-cleavage is reported as 0.237.
With U9C C57A the self-cleavage was 1.09.
Variant C14U G25A has a self-cleavage of 0.115.
Variant C21A G38U has a self-cleavage of 0.0665.
Work on U12A C22A yielded a self-cleavage of 0.
With G5A C58U the self-cleavage was 0.252.
C19G G35U gave a self-cleavage of 0.119.
Work on A8G C26U yielded a self-cleavage of 1.16.
C4A G31U showed a self-cleavage of 0.
With C41U G59A the self-cleavage was 1.
Variant G10A C32U has a self-cleavage of 0.652.
Work on G28A C64U yielded a self-cleavage of 0.117.
Work on G73C G82A yielded a self-cleavage of 0.175.
U9G G38C showed a self-cleavage of 0.302.
Variant C15A C18A has a self-cleavage of 0.115.
A8C G67A gave a self-cleavage of 0.898.
